Residue numbers refer to the chain shown, from its start.
B1: VacW-201 (antibody, V domains shown)
VH: EVQLVESGGGLVQPGGSLRLSCAASGFTFSSYWMNWVRQAPGKGLEWVANIKQDGSEKYYVDSVKGRFTISRDNAKNSLYLQMNSLRAEDTAVYYCARMEYPYGGVDYWGQGTLVTVSS
VL: NFMLTQPHSVSESPGKTVTISCTGSSGSIASNYVQWYQQRPGSAPTTVIYEDNQRPSGVPDRFSGSIDSSSNSASLTISGLKTEDEADYYCQSYDSSNRNWVFGGGTKLTVL
B2: VacW-215 (antibody, V domains shown)
VH: EVQLVESGGGLIQPGGSLRLSCAASGFTVSSNYMSWVRQAPGKGLEWVSVIYSGGSTYYADSVKGRFTISRDNSKNTLYLQMNSLRAEDTAVYYCARSTWLRGGFDYWGQGTLVTVSS
VL: B1 VL with R99H, N100F, W101Y, G105T, L109V
B3: VacW-212 (antibody, V domains shown)
VH: B1 VH with G55E, Y80F, A88V, V106I, S119A
VL: B1 VL
B4: VacW-209 (antibody, V domains shown)
VH: QVQLVESGGGVVQPGRSLRLSCAASGFTFSSIAMHWVRQAPGKGLEWVAVMSFDGSIKYYGDSVKGRFTISRDNSKSTLYLQMNSLRAEDTAVYYCARGVQGYYDRSGYYNLDYNYGMDVWGQGTTVTVSS
VL: QSVLTQPPSVSGAPGQRVTISCTGSSSNIGAGYDVHWYQQLPGTAPKLLIYGNSNRPSGVPDRFSGSKSGTSASLAITGLQAEDEADYYCQSYDSSLSGWVFGGGTKLTVL
B5: VacW-138 (antibody, V domains shown)
VH: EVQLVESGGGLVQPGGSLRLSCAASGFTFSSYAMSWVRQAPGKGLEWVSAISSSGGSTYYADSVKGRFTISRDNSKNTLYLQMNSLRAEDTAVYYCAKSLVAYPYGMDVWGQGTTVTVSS
VL: AIQLTQSPFSLSASVGDRVTITCRASQGISSALAWYQQKPGKAPKLLIYDASSLESGVPSRFSGSGSGTDFTLTISSLQPEDFATYFCQQVDTYQFTFGPGTKVDIK
B6: VacW-105 (antibody, V domains shown)
VH: QVQLVQSGAEVKKPGSSVKVSCKASGGTFRSYTISWVRQAPGQGLEWMGRILPILGIANYAQKFQGRVTITADKSTSTAYMELSSLRSEDTAVYYCARVTGAPVESAAWFDPWGQGTLVTVSS
VL: not shown

What follows are binders tested against T1, SARS-CoV-2 Delta variant RBD protein (L452R and T478K) (SARS-CoV-2, UniProt P0DTC2 319-541) (assay: SPR, Biacore 8K, RBD on CM5 chip, IgG injected, 1:1 model).
T1 construct: domain: RBD; also called L452R和T478K

Binder | Kd [nM]
B1 | 2.14
B2 | 1.02
B3 | 1.83
B4 | 0.0467
B5 | 3.11
B6 | 5.1

These binders were tested against T2, SARS-CoV-2 Kappa variant RBD protein (L452R and E484Q) (SARS-CoV-2, UniProt P0DTC2 319-541) in the same assay as above.
T2 construct: domain: RBD; also called L452R和E484Q

Binder | Kd [nM]
B1 | 1.71
B2 | 0.676
B3 | 1.32
B4 | 0.0234
B5 | 3.17
B6 | 4.13

What follows are binders tested against T3, SARS-CoV-2 RBD protein T478K mutant (SARS-CoV-2, UniProt P0DTC2 319-541) in the same assay as above.
T3 construct: domain: RBD

Binder | Kd [nM]
B1 | 1.64
B2 | 0.683
B3 | 1.22
B4 | 0.023
B5 | 1.75
B6 | 3.37

Each binder was assayed against T4, SARS-CoV-2 RBD protein E484Q mutant (SARS-CoV-2, UniProt P0DTC2 319-541) in the same assay as above.
T4 construct: domain: RBD

Binder | Kd [nM]
B1 | 2.25
B2 | 0.967
B3 | 1.74
B4 | 0.033
B5 | 3.12
B6 | 5.22

— CN113912709A (SHENZHEN NATIONAL CLINICAL RES CENTER FOR INFECTIOUS …, dated 2022)
